Measured values taken from paper PMC10786891, “Massively parallel profiling of RNA-targeting CRISPR-Cas13d”.
Positions count from the first letter of the chain named. In names and notes the source's numbering stands.

T1: EsCas13d, nuclease-dead (Eubacterium siraeum, UniProt B0MS50, R295A;H300A;R849A;H854A)
T1 sequence: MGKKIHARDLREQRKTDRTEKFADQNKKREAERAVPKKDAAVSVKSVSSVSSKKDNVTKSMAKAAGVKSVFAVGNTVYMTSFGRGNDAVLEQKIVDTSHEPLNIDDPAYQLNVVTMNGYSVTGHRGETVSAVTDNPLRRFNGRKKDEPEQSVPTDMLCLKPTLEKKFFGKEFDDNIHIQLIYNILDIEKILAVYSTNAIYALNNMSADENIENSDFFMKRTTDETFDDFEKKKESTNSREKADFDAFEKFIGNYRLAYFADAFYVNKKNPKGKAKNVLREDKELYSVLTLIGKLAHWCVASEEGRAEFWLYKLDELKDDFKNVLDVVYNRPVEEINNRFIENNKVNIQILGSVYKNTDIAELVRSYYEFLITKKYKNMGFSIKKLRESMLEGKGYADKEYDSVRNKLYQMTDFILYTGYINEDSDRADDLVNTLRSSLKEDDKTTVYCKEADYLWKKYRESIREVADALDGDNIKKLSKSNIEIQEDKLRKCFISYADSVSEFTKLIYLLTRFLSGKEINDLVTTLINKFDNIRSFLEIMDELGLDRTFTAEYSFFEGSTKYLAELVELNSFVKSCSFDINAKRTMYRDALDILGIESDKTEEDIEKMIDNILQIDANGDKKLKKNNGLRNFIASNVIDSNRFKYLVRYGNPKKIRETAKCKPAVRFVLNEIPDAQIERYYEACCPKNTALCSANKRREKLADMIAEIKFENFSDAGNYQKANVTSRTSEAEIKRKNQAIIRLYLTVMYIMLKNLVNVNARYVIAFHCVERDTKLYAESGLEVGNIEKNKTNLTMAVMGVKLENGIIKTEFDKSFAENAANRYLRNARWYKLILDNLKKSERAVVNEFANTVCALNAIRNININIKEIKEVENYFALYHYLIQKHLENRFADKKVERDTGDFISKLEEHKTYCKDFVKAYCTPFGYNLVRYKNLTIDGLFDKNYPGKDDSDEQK

B1: target 2 MT 5'PFS UAG 3'PFS CUU (mixed)
RNA 1: CACCCGUGCAAAAUUGCAGGGGUCUAAAACCUUCUCCAAAUUGUUUCAUCCU
RNA 2: GGGAAUGGAUCCACAUCUACGAAUUCUAGAGGAUGAAACAAUUUGGAGAAGCUUAGAUCGGAAGAGCACACGU
B2: target 2 MT 5'PFS GCA 3'PFS AUG (mixed)
RNA 1: B1 RNA 1
RNA 2: B1 RNA 2 with U27G, A28C, G29A, C52A, U54G
B3: target 2 MT 5'PFS GGG 3'PFS CCA (mixed)
RNA 1: B1 RNA 1
RNA 2: B1 RNA 2 with U27G, A28G, U53C, U54A
B4: target 2 MT 5'PFS UAG 3'PFS CUA (mixed)
RNA 1: B1 RNA 1
RNA 2: B1 RNA 2 with U54A
B5: target 2 MT 5'PFS GCA 3'PFS AUU (mixed)
RNA 1: B1 RNA 1
RNA 2: B1 RNA 2 with U27G, A28C, G29A, C52A
B6: target 2 MT 5'PFS GUG 3'PFS UAG (mixed)
RNA 1: B1 RNA 1
RNA 2: B1 RNA 2 with U27G, A28U, C52U, U53A, U54G
B7: target 2 MT 5'PFS UGU 3'PFS CGA (mixed)
RNA 1: B1 RNA 1
RNA 2: B1 RNA 2 with A28G, G29U, U53G, U54A
B8: target 2 MT 5'PFS UAA 3'PFS AUG (mixed)
RNA 1: B1 RNA 1
RNA 2: B1 RNA 2 with G29A, C52A, U54G
B9: target 2 MT 5'PFS GGA 3'PFS AAG (mixed)
RNA 1: B1 RNA 1
RNA 2: B1 RNA 2 with U27G, A28G, G29A, C52A, U53A, U54G
B10: target 2 MT 5'PFS GGA 3'PFS AAC (mixed)
RNA 1: B1 RNA 1
RNA 2: B1 RNA 2 with U27G, A28G, G29A, C52A, U53A, U54C
B11: target 2 MT 5'PFS AAC 3'PFS AGC (mixed)
RNA 1: B1 RNA 1
RNA 2: B1 RNA 2 with U27A, G29C, C52A, U53G, U54C
B12: target 2 MT 5'PFS GGA 3'PFS AAA (mixed)
RNA 1: B1 RNA 1
RNA 2: B1 RNA 2 with U27G, A28G, G29A, C52A, U53A, U54A
B13: target 2 MT 5'PFS UAG 3'PFS CUC (mixed)
RNA 1: B1 RNA 1
RNA 2: B1 RNA 2 with U54C
B14: target 2 MT 5'PFS UUG 3'PFS ACA (mixed)
RNA 1: B1 RNA 1
RNA 2: B1 RNA 2 with A28U, C52A, U53C, U54A
B15: target 2 MT 5'PFS GUA 3'PFS CCA (mixed)
RNA 1: B1 RNA 1
RNA 2: B1 RNA 2 with U27G, A28U, G29A, U53C, U54A
B16: target 2 MT 5'PFS GGA 3'PFS AAU (mixed)
RNA 1: B1 RNA 1
RNA 2: B1 RNA 2 with U27G, A28G, G29A, C52A, U53A
B17: target 2 MT 5'PFS UAA 3'PFS UCG (mixed)
RNA 1: B1 RNA 1
RNA 2: B1 RNA 2 with G29A, C52U, U53C, U54G
B18: target 2 MT 5'PFS UAG 3'PFS CUG (mixed)
RNA 1: B1 RNA 1
RNA 2: B1 RNA 2 with U54G
B19: target 2 MT 5'PFS UUG 3'PFS ACC (mixed)
RNA 1: B1 RNA 1
RNA 2: B1 RNA 2 with A28U, C52A, U53C, U54C
B20: target 2 MT 5'PFS UUG 3'PFS ACU (mixed)
RNA 1: B1 RNA 1
RNA 2: B1 RNA 2 with A28U, C52A, U53C
B21: target 2 MT 5'PFS ACG 3'PFS CUU (mixed)
RNA 1: B1 RNA 1
RNA 2: B1 RNA 2 with U27A, A28C
B22: target 2 MT 5'PFS AGG 3'PFS UCC (mixed)
RNA 1: B1 RNA 1
RNA 2: B1 RNA 2 with U27A, A28G, C52U, U53C, U54C
B23: target 2 MT 5'PFS CAG 3'PFS AAA (mixed)
RNA 1: B1 RNA 1
RNA 2: B1 RNA 2 with U27C, C52A, U53A, U54A
B24: target 2 MT 5'PFS ACA 3'PFS CCG (mixed)
RNA 1: B1 RNA 1
RNA 2: B1 RNA 2 with U27A, A28C, G29A, U53C, U54G
B25: target 2 MT 5'PFS UUG 3'PFS UCC (mixed)
RNA 1: B1 RNA 1
RNA 2: B1 RNA 2 with A28U, C52U, U53C, U54C
B26: target 2 MT 5'PFS GGG 3'PFS CCG (mixed)
RNA 1: B1 RNA 1
RNA 2: B1 RNA 2 with U27G, A28G, U53C, U54G
B27: target 2 MT 5'PFS GGA 3'PFS CGU (mixed)
RNA 1: B1 RNA 1
RNA 2: B1 RNA 2 with U27G, A28G, G29A, U53G
B28: target 2 MT 5'PFS UGU 3'PFS CGC (mixed)
RNA 1: B1 RNA 1
RNA 2: B1 RNA 2 with A28G, G29U, U53G, U54C
B29: target 2 MT 5'PFS UGC 3'PFS UGC (mixed)
RNA 1: B1 RNA 1
RNA 2: B1 RNA 2 with A28G, G29C, C52U, U53G, U54C
B30: target 2 MT 5'PFS UUG 3'PFS ACG (mixed)
RNA 1: B1 RNA 1
RNA 2: B1 RNA 2 with A28U, C52A, U53C, U54G
B31: target 2 MT 5'PFS GCA 3'PFS AUC (mixed)
RNA 1: B1 RNA 1
RNA 2: B1 RNA 2 with U27G, A28C, G29A, C52A, U54C
B32: target 2 MT 5'PFS GCA 3'PFS AUA (mixed)
RNA 1: B1 RNA 1
RNA 2: B1 RNA 2 with U27G, A28C, G29A, C52A, U54A
B33: target 1 insU 3' of 2,insU 3' of 1 (mixed)
RNA 1: CACCCGUGCAAAAAUGCAGGGGUCUAAAACUGAGCGGAUAACCUCUCUAUGG
RNA 2: GGGAAUGGAUCCACAUCUACGAAUUCGUACCAUAGAGAGGUUAUCCGCUCUAUCCGAGAUCGGAAGAGCACACGU
B34: target 1 insU 3' of 18,insG 3' of 8 (mixed)
RNA 1: B33 RNA 1
RNA 2: GGGAAUGGAUCCACAUCUACGAAUUCGUACCAUAUGAGAGGUUAUGCCGCUCACCGAGAUCGGAAGAGCACACGU
B35: target 1 insG 3' of 22,insA 3' of 7 (mixed)
RNA 1: B33 RNA 1
RNA 2: B34 RNA 2 with C31G, A32C, U33A, A34U, U35A, G46C, C47A
B36: target 1 insU 3' of 20,insC 3' of 9 (mixed)
RNA 1: B33 RNA 1
RNA 2: B34 RNA 2 with A34U, U35A, U45C, G46U
B37: target 1 C4A,C6A (mixed)
RNA 1: B33 RNA 1
RNA 2: GGGAAUGGAUCCACAUCUACGAAUUCGUACCAUAGAGAGGUUAUCAGAUCACCGAGAUCGGAAGAGCACACGU

These binders were tested against T1, EsCas13d, nuclease-dead (assay: crRNA (strand 1, pre-loaded); Mg2+; 40 mM Tris-HCl pH 7.5, 150 mM NaCl, 6 mM MgCl2, 1 mM DTT, 0.1% Tween-20, 0.2 mg/ml BSA; 25 C; 10 min per concentration, then washed). Details: tags: His6-TwinStrep-SUMO cleaved; N-terminal SNAP kept (SNAP-Surface 488); label: 3' end held by stalled T7 RNA polymerase.

Going from B1 to B2, the Kd rises from 4.4 ± 0.5 nM to 8.8 ± 0.9 nM (2-fold). The first binds more tightly here.

Compared with B3, B4 is 6.9-fold lower in Kd: 25 ± 5 nM for the first, 3.6 ± 0.5 nM for the second. The second binds more tightly here.

B5 and B6 are within 1.5-fold of each other in Kd: 10.3 ± 1 nM for the first, 13.3 ± 1.3 nM for the second.

Compared with B7, B8 is 1.8-fold lower in Kd: 10.3 ± 1.7 nM for the first, 5.6 ± 1.5 nM for the second. The second binds more tightly here.

B9 and B10 are within error of each other in Kd: 9.3 ± 1.4 nM for the first, 7.4 ± 0.7 nM for the second.

Going from B11 to B12, the Kd rises from 4.4 ± 1.5 nM to 8.6 ± 1.9 nM (2-fold). The first binds more tightly here.

Compared with B13, B14 is 3.4-fold higher in Kd: 4.4 ± 0.4 nM for the first, 15 ± 1.4 nM for the second.

First: B15
Second: B16
The Kd of the first is 2.6-fold higher: 17.3 ± 2.4 nM for the first, 6.7 ± 0.6 nM for the second. The second binds more tightly here.

Compared with B17, B18 is 1.6-fold lower in Kd: 6.2 ± 1 nM for the first, 3.8 ± 0.5 nM for the second.

Compared with B19, B20 is 2.9-fold lower in Kd: 47 ± 10 nM for the first, 16.2 ± 1.8 nM for the second.

Compared with B21, B22 is 2.3-fold higher in Kd: 11.1 ± 2.1 nM for the first, 26 ± 4 nM for the second.

B23 and B24 are within error of each other in Kd: 7.5 ± 2 nM for the first, 6.3 ± 1 nM for the second.

Going from B25 to B26, the Kd falls from 42 ± 7 nM to 11.6 ± 0.9 nM (3.6-fold).

B27 and B28 are within error of each other in Kd: 19.9 ± 3.1 nM for the first, 18.5 ± 2.9 nM for the second.

Going from B29 to B30, the Kd falls from 64 ± 18 nM to 18.5 ± 1.6 nM (3.5-fold). The second binds more tightly here.

Going from B31 to B32, the Kd falls from 14 ± 4 nM to 7.2 ± 1 nM (1.9-fold). The second binds more tightly here.

Compared with B33, B34 is 3.8-fold higher in Kd: 10.7 ± 0.6 nM for the first, 41 ± 4 nM for the second. The first binds more tightly here.

B35 and B36 are within 1.5-fold of each other in Kd: 15.2 ± 1 nM for the first, 22.6 ± 1.1 nM for the second.

With B37 the Kd was 6.17 ± 0.31 nM.
